Test results: US20220259324A1 (MINERVA BIOTECHNOLOGIES, published 2022)

T1: Human NME7-AB, also known as NME7AB (recombinant, devoid of the DM10 domain) (human, UniProt Q9Y5B8 92-376)
T1 construct: Recombinant, expressed in E. coli, purified over NTA-Ni and by size exclusion; monomer of about 33 kDa; also called NME-AB
T1 sequence: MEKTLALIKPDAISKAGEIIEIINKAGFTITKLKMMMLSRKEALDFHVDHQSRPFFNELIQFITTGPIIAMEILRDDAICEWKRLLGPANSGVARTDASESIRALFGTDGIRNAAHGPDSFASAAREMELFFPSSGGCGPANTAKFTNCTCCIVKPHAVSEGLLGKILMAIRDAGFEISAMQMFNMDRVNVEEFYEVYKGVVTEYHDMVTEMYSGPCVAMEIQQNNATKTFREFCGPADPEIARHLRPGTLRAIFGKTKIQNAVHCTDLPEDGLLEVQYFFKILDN


Key:
[1] = target: T1, Human NME7-AB, also known as NME7AB …; assay: ELISA, plate coated with recombinant NME7-AB (FIG. 24)
[2] = target: T1, Human NME7-AB, also known as NME7AB …; assay: sandwich ELISA, HRP signal (FIG. 1)
Description: The PSMGFR peptide bearing a C-terminal Cysteine (PSMGFR-Cys) was covalently coupled to BSA using Imject Maleimide activated BSA kit (Thermo Fisher). PSMGFR-Cys coupled BSA was diluted to 10 ug/mL in 0.1M carbonate/bicarbonate buffer pH 9.6 and 50 uL was added to each well of a 96 well plate. After overnight incubation at 4° C., the plate was washed twice with PBS-T and a 3% BSA solution was added to block remaining binding site on the well. After 1h at RT the plate was washed twice with PBS-T and NME7, diluted in PBS-T+1% BSA, was added at different concentrations. After 1h at RT the plate was washed 3× with PBS-T and anti-NM23-H7 (B-9, Santa Cruz Biotechnology), diluted in PBS-T+1% BSA, was added at 1/500 dilution. […] After 1h at RT the plate was washed 3× with PBS-T and binding of NME7 was measured at 415 nm using ABTS solution (Pierce). […]
After 1h at RT the plate was washed 3× with PBS-T and His-Tagged PSMGFR peptide (PSMGFR-His) or biotinylated PSMGFR peptide (PSMGFR-biotin), diluted in PBS-T+1% BSA, was added at different concentration. […] After 1h at RT the plate was washed 3× with PBS-T and binding of PSMGFR peptide to NME7 already bound to another PSMGFR peptide (which could not signal by anti-His antibody or by streptavidin) coupled BSA was measured at 415 nm using a ABTS solution (Pierce).

Row | Binder | binding result [1] | binding result [2]
1 | Monoclonal antibody 8F9A4A3 (antibody, V domains shown, Mouse monoclonal antibody) VH: VQLQQSGPELVKPGASVKISCKTSGNTFTEYTMHWVKQSHGKSLEWIGGFNPNNGVTNYNQKFKGKATLTVDKSSSTAYMELRSLTSEDSAVYYCARRYYHSLYVFYFDYWGQGTTLTVSS VL: ETTVTQSPASLSMAIGEKVTIRCITSTDIDDDMNWYQQKPGEPPKLLISEGNTLRPGVPSRFSSSGYGTDFVFTIENMLSEDVADYYCLQSDNLPLTFGSGTKLEIKR | binds | –
2 | Monoclonal Antibody 5F3A5D4 (antibody, V domains shown, Mouse monoclonal antibody) VH: VQLQQSGPDLVKPGTSVKISCKTSGNTFTEYTMHWVKQSHGKSLEWIGGFNPNNGVTNYNQKFKGKATLTVDKSSSTAYMELRSLTSEDSAVYYCARRYYHSTYVFYFDSWGQGTTLTVSS VL: DIQMTQTTSSLSASLGDRVTISCSASQGISNYLNWFQQKPDGTIKLLIYYTSSLHSGVPSRFSGSGSGTDYSLTISNVEPEDIATYYCQQYSKLPYTFGGGTKLEIKR | binds | –
3 | GTINVHDVETQFNQYKTEAASRYNLTISDVSVSDVPFPFSAQSGA (Synthetic peptide immobilized on ELISA plates; also called MUC1* peptide; FLR) [PSMGFR peptide (MUC1* extra cellular domain peptide)] | – | binds
4 | Monoclonal Antibody 8F9A5A1 (antibody, V domains shown, Mouse monoclonal antibody) VH: IQLVQSGPELKKPGETVKISCKASGYTFTNYGMNWVKQAPGKGLKWMGWINTYTGEPTYVDDFKGRFAFSLETSATTAYLQINNLKNEDTSTYFCARLRGIRPGPLAYWGQGTLVTVSA VL: EILLTQSPAIIAASPGEKVTITCSASSSVSYMNWYQQKPGSSPKIWIYGISNLASGVPARFSGSGSGTSFSFTINSMEAEDVATYYCQQRSSYPPTFGGGTKLEIKR | binds | –
